2 substances from patent publication US20240299510A1 can be followed below.

By Kd is commonly meant the free concentration of one partner at which half of the binding sites on the other are occupied at equilibrium, for simple one-to-one binding. Low readings indicate tighter binding, high ones weaker binding.

One experiment has as its target HIT01-Combo3. Put plainly: BLI (Octet); antibody IgG 50 ug/ml on AHC sensor, immunogen from 500 nM in 2x dilutions.
Experiment [1] deals with HIT01-K21Q-R218E. The experiment is described as above.
The target in a further experiment is human PCSK9 (human) (UniProt Q8NBP7). Put plainly: BLI (Octet) blocking; wt PCSK9 on Ni-NTA sensor, 50 ug/ml AMG145 for 300 s, then NHP serum (competitor) at 200-fold dilution. (BLI is a label-free optical method that tracks binding on a fibre tip over time.)
In experiment [2] the target is HIT01-K21Q-R218E. As to the kind of experiment: BLI (Octet) blocking; HIT01-K21Q-R218E on Ni-NTA sensor, 50 ug/ml AMG145 for 300 s, then NHP serum (competitor) at 200-fold dilution.

Turning to Alirocumab (antibody), the Kd in the experiment with HIT01-Combo3 amounted to 112 nM; in the experiment with HIT01-K21Q-R218E [1], 58 nM.

AMG145 (antibody): the Kd with HIT01-Combo3 is 0.005 nM; in the experiment with HIT01-K21Q-R218E [1], less than 0.001 nM. The reduction of serum response when the probe is blocked with human PCSK9 (human) and with HIT01-K21Q-R218E [2] was 50% throughout.
